Patent US20150239980A1 (NEOTOPE BOSCIENCES, published 2015)

Assays:
recombinant hMCAM-His [1] = molecular target: T1, recombinant hMCAM-His (human, UniProt P43121 24-559); assay: ForteBio Octet Red, hMCAM-His analyte; Expt. #1; vs rodent 1749
T1 construct: not shown: His tag
T1 chain: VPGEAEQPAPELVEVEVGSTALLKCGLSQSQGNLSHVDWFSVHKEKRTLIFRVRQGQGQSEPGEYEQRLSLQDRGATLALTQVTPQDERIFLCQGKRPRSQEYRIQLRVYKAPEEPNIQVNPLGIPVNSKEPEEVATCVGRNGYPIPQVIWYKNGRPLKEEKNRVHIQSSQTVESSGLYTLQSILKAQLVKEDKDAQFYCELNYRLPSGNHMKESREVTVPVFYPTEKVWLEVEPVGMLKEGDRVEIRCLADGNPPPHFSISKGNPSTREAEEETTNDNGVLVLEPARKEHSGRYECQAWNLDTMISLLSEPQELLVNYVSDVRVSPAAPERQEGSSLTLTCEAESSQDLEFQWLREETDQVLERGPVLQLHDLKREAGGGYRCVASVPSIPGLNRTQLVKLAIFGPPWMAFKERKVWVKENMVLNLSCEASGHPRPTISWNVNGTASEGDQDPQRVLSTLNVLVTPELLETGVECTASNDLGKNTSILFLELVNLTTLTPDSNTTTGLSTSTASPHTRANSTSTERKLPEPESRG
Experimental: (§1) The affinities were measured using the ForteBio Octet Red. Anti-human Fc sensors were used to capture the humanized antibodies, and several concentrations of hMCAMHis analyte were used to determine the affinity using a 1:1 fitting model.

recombinant hMCAM-His [2] = molecular target: T1, recombinant hMCAM-His; assay: ForteBio Octet Red, hMCAM-His analyte; Forte column 1; vs rodent 1749
Method in brief: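 Capture humanized antibody on anti-human Fc biosensors, flow several hMCAMHis concentrations as analyte, then fit the binding traces to a 1:1 model to obtain affinity.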

recombinant hMCAM-His [3] = molecular target: T1, recombinant hMCAM-His; assay: ForteBio Octet Red, hMCAM-His analyte; Expt. #2; vs rodent 1749
Experimental: as §1

[4] = molecular target: T2, human MCAM domain 3 (amino acids 244-321), Fc-tagged (human, UniProt P43121 244-321); assay: ForteBio domain mapping as in Example 8
T2 construct: also called domain 3 of the human MCAM protein
T2 sequence: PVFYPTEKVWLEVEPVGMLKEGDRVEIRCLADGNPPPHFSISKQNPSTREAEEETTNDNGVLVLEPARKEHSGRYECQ

[5] = molecular target: T3, human MCAM domain 1 (amino acids 19-129), Fc-tagged (human, UniProt P43121 19-129); assay: ForteBio domain mapping as in Example 8
T3 construct: also called MCAM Fc domain 1
T3 sequence: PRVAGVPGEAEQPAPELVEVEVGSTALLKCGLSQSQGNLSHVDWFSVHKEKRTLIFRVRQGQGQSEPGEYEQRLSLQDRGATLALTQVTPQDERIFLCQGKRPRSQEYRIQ

[6] = molecular target: T4, human MCAM domain 2 (amino acids 139-242), Fc-tagged (human, UniProt P43121 139-242); assay: ForteBio domain mapping as in Example 8
T4 sequence: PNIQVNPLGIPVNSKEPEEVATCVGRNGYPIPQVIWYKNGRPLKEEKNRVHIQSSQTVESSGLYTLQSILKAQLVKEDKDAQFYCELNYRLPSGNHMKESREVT

[7] = molecular target: T5, Recombinant human Fc-tagged MCAM IgG1-2A (human MCAM domains 1 and 2, amino acids 19-242) (human, UniProt P43121 19-242); assay: ForteBio domain mapping as in Example 8
T5 construct: also called human MCAM IgG1-2A; MCAM Fc domains 1 and 2; not shown: human Fc tag
T5 sequence: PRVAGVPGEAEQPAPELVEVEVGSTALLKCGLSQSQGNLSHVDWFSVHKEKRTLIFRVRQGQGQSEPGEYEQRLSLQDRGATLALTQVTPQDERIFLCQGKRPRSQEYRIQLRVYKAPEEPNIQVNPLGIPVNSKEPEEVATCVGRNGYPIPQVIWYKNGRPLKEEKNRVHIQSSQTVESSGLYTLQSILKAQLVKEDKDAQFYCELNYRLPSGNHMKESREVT

recombinant hMCAM-His [8] = molecular target: T1, recombinant hMCAM-His; assay: competitive ELISA on hMCAM-His, competitor biotinylated rodent or chimeric 1749; vs rodent 1749
recombinant hMCAM-His [9] = molecular target: T1, recombinant hMCAM-His; assay: competitive ELISA on hMCAM-His, competitor biotinylated rodent or chimeric 1749; Expt. #2; vs rodent 1749
Method in brief: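 Plates coated with recombinant hMCAM-His and casein-blocked; biotinylated rodent or chimeric antibody at subsaturating level competed by 3× serial concentrations of unlabeled humanized, rodent or chimeric antibody. Bound biotinylated antibody detected with streptavidin-HRP/TMB at OD450; competitor IC50 fitted.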

[10] = molecular target: T6, human MCAM (melanoma cell adhesion molecule) expressed on transfected CHO cells (human, UniProt P43121 24-646); assay: laminin/FACS on hMCAM CHO cells, competitor laminin 411; Expt#2; vs rodent 1749
T6 construct: also called hMCAM; CD146
T6 chain: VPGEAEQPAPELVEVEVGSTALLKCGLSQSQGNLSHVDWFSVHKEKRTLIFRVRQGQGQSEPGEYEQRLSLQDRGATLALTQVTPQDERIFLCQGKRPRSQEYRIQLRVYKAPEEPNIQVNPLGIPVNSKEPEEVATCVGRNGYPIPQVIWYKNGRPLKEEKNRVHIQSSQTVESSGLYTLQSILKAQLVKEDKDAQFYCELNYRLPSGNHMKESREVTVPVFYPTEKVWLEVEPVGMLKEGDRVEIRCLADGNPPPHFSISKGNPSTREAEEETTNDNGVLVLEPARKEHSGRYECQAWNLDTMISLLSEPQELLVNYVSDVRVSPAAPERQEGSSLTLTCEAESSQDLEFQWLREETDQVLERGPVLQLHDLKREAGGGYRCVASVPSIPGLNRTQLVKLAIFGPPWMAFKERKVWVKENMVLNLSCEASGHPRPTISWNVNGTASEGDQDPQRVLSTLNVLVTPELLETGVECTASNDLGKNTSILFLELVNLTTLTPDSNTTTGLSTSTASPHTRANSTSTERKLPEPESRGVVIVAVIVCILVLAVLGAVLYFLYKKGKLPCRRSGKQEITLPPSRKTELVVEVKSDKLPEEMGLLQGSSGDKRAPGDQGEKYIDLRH
Method in brief: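 Bound laminin is quantified by flow cytometry using an AF650-conjugated anti-laminin detection antibody. Cells are washed before detection, following 30-45 minutes of incubation.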

B1: mouse anti-human MCAM monoclonal antibody clone 1749.1.3 (antibody, V domains shown)
VH: DVKLVESGGDLVKPGGSLKLSCAASGFTFSSYIMSWVRQTPEKRLEWVATISSGGSSTYYPDSVKGRFTISRDNAKNTLYLQMSSLKSEDTAMYYCTRDDDYDVKVFAYWGQGTLVTVSA
VL: DIVMSQSPSSLAVSAGEKVTMNCKSSRSLLNSRIRKNYLAWYQQKPGQSPKLLIYWASTRESGVPDRFTGSGSGTDFTLTISSVQAEDLAVYYCKQSYNLLTFGAGTKLELK
notes: mouse hybridoma antibody; also called rodent 1749; murine 1749.1.3 anti-MCAM antibody
- fold over rodent (Forte affinity) (recombinant hMCAM-His [1]): 1 fold
- fold over rodent (Forte affinity) (recombinant hMCAM-His [2]): 1 fold
- fold over rodent (Forte affinity) (recombinant hMCAM-His [3]): 1 fold
- binding result [4]: binds
- binding result [5]: no binding
- binding result [6]: no binding
- binding result [7]: no binding
- fold over rodent (competitive ELISA) (recombinant hMCAM-His [8]): 1 fold
- fold over rodent (competitive ELISA) (recombinant hMCAM-His [9]): 1 fold
- fold over rodent (blocking, laminin/FACS) [10]: 1 fold
